Experimental data from article PMC7747622.

Columns and labels:
[1] = tested on: M-Ig of patient (monoclonal IgG kappa) (human (patient)); test: SPR; conditions: 2 mM Mg2+; aptamer immobilized; scrambled channel subtracted; SPR: PBS, 2 mM MgCl2 (SB), 6.25-200 nM IgG, 20 ul/min, 1:1 model; ELONA: SuperBlock or ChonBlock, 0.05% Tween 20, 2 mM MgCl2, washes PBS/2 mM MgCl2/0.05% Tween …
[2] = tested on: daratumumab (anti-CD38 therapeutic mAb, IgG kappa); test: SPR; conditions: SPR: PBS, 2 mM MgCl2 (SB), 6.25-200 nM IgG, 20 ul/min, 1:1 model; ELONA: SuperBlock or ChonBlock, 0.05% Tween 20, 2 mM MgCl2, washes PBS/2 mM MgCl2/0.05% Tween …

In the case of “GGAGGCTCTCGGGACGACGAGTGTGTCAGGTGGATGGACGGTTGGGTTGGGTAGGCAAGGATCGCTGCTGACCAGTTGAG [aptC]”, the Kd [1] is reported as 1.85 nM.

Sequence “GGAGGCTCTCGGGACGACGGCGCGGCGATTTGGGGTATGGGGAGGGGGTGGGTTGGGTCCATCGCTGCTGACCAGTTGAG [aptD]” has a Kd [2] of 2.67 nM.
